According to paper PMC2992962 (Protein expression and purification, 2010):

Biological target: the molecule itself
Experiment: SEC

B1: recombinant human his-GAPDHS (sperm-specific glyceraldehyde-3-phosphate dehydrogenase lacking the proline-rich N-terminal sequence) (enzyme)
chain: MVSVARELTVGINGFGRIGRLVLRACMEKGVKVVAVNDPFIDPEYMVYMFKYDSTHGRYKGSVEFRNGQLVVDNHEISVYQCKEPKQIPWRAVGSPYVVESTGVYLSIQAASDHISAGAQRVVISAPSPDAPMFVMGVNENDYNPGSMNIVSNASCTTNCLAPLAKVIHERFGIVEGLMTTVHSYTATQKTVDGPSRKAWRDGRGAHQNIIPASTGAAKAVTKVIPELKGKLTGMAFRVPTPDVSVVDLTCRLAQPAPYSAIKEAVKAAAKGPMAGILAYTEDEVVSTDFLGDTHSSIFDAKAGIALNDNFVKLISWYDNEYGYSHRVVDLLRYMFSRDK
stoichiometry N: 4
